In publication PMC2778355 (Biochemistry, 2009):
Values belong to the molecule of their own block, whether it stands above or below them.

Legend:
His-ZapA (E. coli) [1] = target: His-ZapA (E. coli) (UniProt P0ADS2); assay: AUC
His-ZapA (E. coli) [2] = target: His-ZapA (E. coli) (UniProt P0ADS2); assay: composition-gradient static light scattering
ZapA (Escherichia coli) = ZapA (Escherichia coli) (UniProt P0ADS2); conditions: cited from earlier work
[3] = target: Escherichia coli FtsZ (E. coli) (UniProt P0A9A6); assay: co-sedimentation
[4] = target: the molecule itself; assay: negative-stain electron microscopy

Molecule: ZapA (from UniProt P0ADS2)
Kd (ZapA (Escherichia coli)): 320 nM

B1: Escherichia coli FtsZ (natural protein)
chain: MFEPMELTNDAVIKVIGVGGGGGNAVEHMVRERIEGVEFFAVNTDAQALRKTAVGQTIQIGSGITKGLGAGANPEVGRNAADEDRDALRAALEGADMVFIAAGMGGGTGTGAAPVVAEVAKDLGILTVAVVTKPFNFEGKKRMAFAEQGITELSKHVDSLITIPNDKLLKVLGRGISLLDAFGAANDVLKGAVQGIAELITRPGLMNVDFADVRTVMSEMGYAMMGSGVASGEDRAEEAAEMAISSPLLEDIDLSGARGVLVNITAGFDLRLDEFETVGNTIRAFASDNATVVIGTSLDPDMNDELRVTVVATGIGMDKRPEITLVTNKQVQQPVMDRYQQHGMAPLTQEQKPVAKVVNDNAPQTAKEPDYLDIPAFLRKQAD
binding result [4]: binds

Now from value to molecule:

stoichiometry N (His-ZapA (E. coli) [1]): 4
stoichiometry N (His-ZapA (E. coli) [2]): 4
Molecule: His-ZapA (from UniProt P0ADS2 1-109) (natural protein)

stoichiometry N [3]: 1
Molecule: ZapA (His tag removed by enterokinase digestion of His-ZapA) (from UniProt P0ADS2 1-109) (natural protein)
